Molecular target: T1, mouse serum albumin (mouse, UniProt P07724 25-608)
T1 construct: also called MSA; mouse albumin
Test: phage on blotted plasma (1/10)
Protocol: A SDS-PAGE was run for plasma (1/10 dilution) from different species (baboon, pig, hamster, human, rat. mouse and rabbit) and blotted on a nitrocellulose membrane. Phages were prepared for clones MSA 21. […] Phages were allowed to bind to the nitrocellulose blotted serum albumins and unbound phages were washed away. Binding was detected with a anti-M13 polyclonal antibody coupled to HRP. DAP was used as a substrate for detection.

T1 sequence (P07724 25-608 limits assumed): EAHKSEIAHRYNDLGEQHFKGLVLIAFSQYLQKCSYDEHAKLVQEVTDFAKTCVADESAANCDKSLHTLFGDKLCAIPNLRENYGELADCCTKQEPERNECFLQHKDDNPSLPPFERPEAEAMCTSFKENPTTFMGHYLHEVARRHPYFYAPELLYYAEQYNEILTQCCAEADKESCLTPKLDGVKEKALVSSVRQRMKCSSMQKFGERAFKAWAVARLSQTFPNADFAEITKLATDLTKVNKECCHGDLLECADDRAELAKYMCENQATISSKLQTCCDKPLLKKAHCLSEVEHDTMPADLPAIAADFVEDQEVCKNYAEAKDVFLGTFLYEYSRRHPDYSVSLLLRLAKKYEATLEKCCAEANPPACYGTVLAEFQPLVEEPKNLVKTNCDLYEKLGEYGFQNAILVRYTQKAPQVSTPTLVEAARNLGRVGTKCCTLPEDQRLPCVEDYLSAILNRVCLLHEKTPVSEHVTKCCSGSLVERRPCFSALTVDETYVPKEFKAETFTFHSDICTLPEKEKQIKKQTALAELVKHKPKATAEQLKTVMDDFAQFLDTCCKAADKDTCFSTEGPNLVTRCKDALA

B1: MSA24 (VHH)
VHH: QVQLQESGGGLVQPGNSLRLSCAASGFTFRNFGMSWVRQAPGKEPEWVSSISGSGSNTIYADSVKDRFTISRDNAKSTLYLQMNSLKPEDTAVYYCTIGGSLSRSSQGTQVTVSS
B1: binds.
